Experimental findings from patent publication US20170022281A1 (AbbVie / Abbott, published 2017) are described below.

Where a chain is given by its changes, count along the chain named.

Experiment [1] concerns the target T1, human PRLR on cells (human, UniProt P16471 25-622).
T1 sequence: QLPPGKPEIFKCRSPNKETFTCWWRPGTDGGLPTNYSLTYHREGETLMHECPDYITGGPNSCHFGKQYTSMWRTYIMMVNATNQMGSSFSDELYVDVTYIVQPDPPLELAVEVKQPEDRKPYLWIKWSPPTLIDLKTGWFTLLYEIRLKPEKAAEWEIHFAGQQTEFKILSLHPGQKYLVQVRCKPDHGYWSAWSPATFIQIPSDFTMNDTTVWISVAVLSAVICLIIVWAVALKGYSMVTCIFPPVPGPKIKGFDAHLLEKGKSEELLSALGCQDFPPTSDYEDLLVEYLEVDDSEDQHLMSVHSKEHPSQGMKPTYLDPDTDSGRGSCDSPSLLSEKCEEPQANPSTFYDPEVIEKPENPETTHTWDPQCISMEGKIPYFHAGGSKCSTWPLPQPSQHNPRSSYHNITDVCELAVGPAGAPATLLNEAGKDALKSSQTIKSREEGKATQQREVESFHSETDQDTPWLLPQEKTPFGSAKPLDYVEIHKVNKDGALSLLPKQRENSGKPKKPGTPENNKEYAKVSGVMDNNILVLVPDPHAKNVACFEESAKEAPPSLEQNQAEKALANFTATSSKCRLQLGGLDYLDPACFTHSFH
In words: cell-based or functional assay.

The target of experiment [2] is cyno PRLR on Baf3-cyPRLR cells (cyno). The experiment in a line: cell-based or functional assay.
Experiment [3] addresses T2, rat PRLR on Nb2-11 rat lymphoma cells (rat, UniProt P05710 20-610).
T2 sequence (looked up): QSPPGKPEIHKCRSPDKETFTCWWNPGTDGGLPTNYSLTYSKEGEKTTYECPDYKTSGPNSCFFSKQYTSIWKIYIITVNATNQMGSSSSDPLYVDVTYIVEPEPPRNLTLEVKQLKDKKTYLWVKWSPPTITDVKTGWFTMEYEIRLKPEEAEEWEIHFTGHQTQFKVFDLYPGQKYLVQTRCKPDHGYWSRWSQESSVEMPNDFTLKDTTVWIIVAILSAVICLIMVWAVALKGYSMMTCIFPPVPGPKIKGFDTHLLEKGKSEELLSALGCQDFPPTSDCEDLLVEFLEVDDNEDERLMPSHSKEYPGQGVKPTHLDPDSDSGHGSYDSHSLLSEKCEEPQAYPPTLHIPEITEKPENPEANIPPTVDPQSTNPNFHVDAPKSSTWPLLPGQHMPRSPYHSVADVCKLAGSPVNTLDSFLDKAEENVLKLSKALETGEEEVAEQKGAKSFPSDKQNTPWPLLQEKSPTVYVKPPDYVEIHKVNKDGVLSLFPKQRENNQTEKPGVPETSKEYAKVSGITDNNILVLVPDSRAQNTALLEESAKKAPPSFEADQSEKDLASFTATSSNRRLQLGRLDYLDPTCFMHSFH
In words: cell-based or functional assay.

The target of experiment [4] is T3, cyno PRLR (Biacore antigen) (cyno, UniProt A0A2K5WXK1 25-234).
T3 construct: also called cyPRLR
T3 sequence: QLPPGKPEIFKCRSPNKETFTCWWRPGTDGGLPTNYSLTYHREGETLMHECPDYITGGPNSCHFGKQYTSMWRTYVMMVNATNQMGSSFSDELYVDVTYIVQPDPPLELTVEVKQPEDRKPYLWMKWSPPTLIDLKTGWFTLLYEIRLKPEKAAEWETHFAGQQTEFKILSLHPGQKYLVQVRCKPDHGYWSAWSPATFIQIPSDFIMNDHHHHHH
The experiment in a line: SPR Biacore. In a few lines:
(§1)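 Association rate, dissociation rate and dissociation constant were measured by surface plasmon resonance on a Biacore instrument. PRLR antigen was tested at 600 nM, 66.67 nM and 7.41 nM, a 3-point, 9-fold dilution series. Constants came from a 1:1 binding model fit (local Rmax, mass-transport term included) in Biacore T200 Evaluation Software.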
A general note: Surface plasmon resonance follows binding to a sensor surface in real time, without labels.

Experiment [5] deals with T4, murine PRLR (Biacore antigen) (murine, UniProt Q08501 20-229, limits assumed).
T4 construct: also called muPRLR
T4 sequence (looked up): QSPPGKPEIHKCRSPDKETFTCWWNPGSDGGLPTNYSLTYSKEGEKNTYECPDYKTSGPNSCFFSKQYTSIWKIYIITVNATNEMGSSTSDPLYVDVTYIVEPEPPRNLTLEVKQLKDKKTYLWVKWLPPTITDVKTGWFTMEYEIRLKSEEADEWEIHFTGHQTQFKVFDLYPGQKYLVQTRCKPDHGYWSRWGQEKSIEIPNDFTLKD
In words: SPR Biacore. In a few lines: as §1

Experiment [6] has as its target T5, human PRLR (Biacore antigen) (human, UniProt P16471 25-234, limits assumed).
T5 construct: The construct injected over captured antibody is not described (a soluble form is likely); also called huPRLR
T5 sequence: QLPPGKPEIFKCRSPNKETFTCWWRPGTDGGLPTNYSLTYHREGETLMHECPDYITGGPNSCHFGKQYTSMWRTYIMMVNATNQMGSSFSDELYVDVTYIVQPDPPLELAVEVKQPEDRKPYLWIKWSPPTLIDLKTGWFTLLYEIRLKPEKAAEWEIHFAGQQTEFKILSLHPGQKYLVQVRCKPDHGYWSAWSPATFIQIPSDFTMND
In words: SPR Biacore. The method, boiled down:
as §1

Experiment [7] has as its target T6, cyno PRLR ECD-his6 protein (cyno).
T6 chain: T3 sequence
In words: ELISA on ECD. In a few lines: (§2)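 PRLR was captured on blocked plates for 1 h, then incubated 1 h with serial antibody dilutions in PBS pH 7.4/0.05% Tween 20 containing 10% Superblock. HRP secondary and TMB gave signal read at 450 nm, and EC50 came from curve fitting.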
On the technique in general: An ELISA detects its analyte on a solid surface through an enzyme-linked reagent.

Experiment [8] concerns the target T7, human PRLR ECD-Fc fusion protein (human, UniProt P16471 25-233).
T7 construct: not shown: Fc region (captured by goat anti-human Fc)
T7 sequence: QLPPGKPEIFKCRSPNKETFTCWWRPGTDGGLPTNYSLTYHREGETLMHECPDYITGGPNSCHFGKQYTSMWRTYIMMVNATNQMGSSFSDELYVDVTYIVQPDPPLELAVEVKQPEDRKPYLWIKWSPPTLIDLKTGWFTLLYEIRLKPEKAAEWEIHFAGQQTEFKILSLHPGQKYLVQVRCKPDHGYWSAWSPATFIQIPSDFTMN
In words: ELISA on ECD. The method, boiled down: as §2

The target of experiment [9] is T8, rat PRLR ECD-Fc fusion protein (rat, UniProt P05710 20-229).
T8 construct: extracellular domain; not shown: Fc region (captured by goat anti-human Fc)
T8 sequence (looked up): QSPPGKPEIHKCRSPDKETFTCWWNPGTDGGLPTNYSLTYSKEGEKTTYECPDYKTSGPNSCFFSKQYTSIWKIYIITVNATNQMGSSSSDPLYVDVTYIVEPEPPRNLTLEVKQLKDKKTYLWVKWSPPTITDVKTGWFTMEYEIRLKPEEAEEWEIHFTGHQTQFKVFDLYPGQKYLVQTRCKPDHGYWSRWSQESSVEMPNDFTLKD
The experiment in a line: ELISA on ECD. In a few lines:
as §2

Experiment [10] has as its target T9, mouse PRLR ECD-Fc fusion protein (mouse, UniProt Q08501 20-229).
T9 construct: extracellular domain; not shown: Fc region (captured by goat anti-human Fc)
T9 sequence (looked up): T4 sequence (looked up)
The experiment in a line: ELISA on ECD. The method, boiled down: as §2

For experiment [11], the target named is T1, human PRLR on cells. In words: FACS T47D 10 ug/mL.

B1: chAb12 (antibody, human IgG1, kappa, V domains shown)
VH: DVQLQESGPGLVKPSQSLSLTCTVTGYSITSDYAWNWIRQFPGNKLEWMGYIGYSGRTSFNPSLKSRISITRDTSKNQFFLQLNSVTTEDTATYYCARGGFAMDYWGQGTSVTVSS
VL: QIVLTQSPGIMSASPGEKVTMTCSASSSVTYMYWYQQKPRSSPKPWIYLTSNLASGVPARFSGSGSGTSYSLTISSMEAEDGATYYCQQWSSTPPLTFGGGTKLELNT
On to B1, for which, in the experiment with human PRLR on cells [1], the “Baf3-hPRLR proliferation IC50” value worked out at 10.7 µg/mL. Further, in [2], the “Baf3-cyPRLR proliferation IC50” value is above 10 µg/mL. Besides, in experiment [3], the “Nb2-11 proliferation IC50” value was determined as 41.4 µg/mL.

B2: Ab27 (antibody, human IgG1, kappa, V domains shown)
VH: EVQLVQSGAEVKKPGSSVKVSCKASGYTFTSFWMHWVRQAPGQGLEWMGVIDPSDTYTNYNQKFKGRVTITADESTSTAYMELSSLRSEDTAVYYCARGDYSNWFTYWGQGTLVTVSS
VL: DVVMTQTPLSLSVTPGQPASISCRSSQRLVHSNGNTYLHWYLQKPGQSPQLLIYKVSNRFSGVPDRFSGSGSGTDFTLKISRVEAEDVGVYFCSQSTHVPWTFGGGTKVEIKR
notes: humanized from Ab5; G1; also called Ab2 HC.1 and Ab2 LC.1a
What is called Kd is the constant that tells how readily two partners part at equilibrium. Read a high Kd as weaker binding. The term koff denotes the first-order rate constant of dissociation. High values mean fast dissociation, low ones slow dissociation. In general, kon refers to the second-order rate constant of association. A high value points to fast association. A word on the EC50: it is the concentration needed to bring the measured effect to its halfway point. Low values mean higher potency in that assay, high ones lower potency in that assay. With B2, the Kd is 1.56 nM in [4], 38.3 nM in [5] and 1.25 nM in experiment [6]. Moreover, the figures for the koff in experiment [4], in [5] and in [6] were 0.00052 s⁻¹, 0.00512 s⁻¹ and 0.000443 s⁻¹, respectively. Moreover, the kon was determined as 333000 M⁻¹ s⁻¹ in [4], 134000 M⁻¹ s⁻¹ in [5] and 356000 M⁻¹ s⁻¹ in [6]. Moreover, the EC50 in [7] amounted to 0.102 nM; in experiment [8] it was 0.17 nM; in experiment [9], 0.125 nM; in experiment [10] it was 0.185 nM. In addition, in the experiment with human PRLR on cells [1], the “Baf3-hPRLR proliferation IC50” value stood at 0.16 µg/mL. Besides, in experiment [2], the “Baf3-cyPRLR proliferation IC50” value stood at 0.22 µg/mL.

B3: Ab31 (antibody, human IgG1, kappa)
heavy: not shown
light: DVVMTQTPLSLSVTPGQPASISCRSSQRLVHSNGNTYLHWYLQKPGQSPQLLIYKVSNRFSGVPDRFSGSGSGTDFTLKISRVEAEDVGVYYCSQSTHVPWTFGGGTKVEIKRTVAAPSVFIFPPSDEQLKSGTASVVCLLNNFYPREAKVQWKVDNALQSGNSQESVTEQDSKDSTYSLSSTLTLSKADYEKHKVYACEVTHQGLSSPVTKSFNRGEC
notes: humanized from Ab5; G1; also called Ab2 HC.1a and Ab2 LC.1b
In the case of B3, the Kd in experiment [4] was 2.08 nM; in experiment [5], 55.7 nM; in experiment [6] it was 1.67 nM. For the same molecule, the koff was determined as 0.000643 s⁻¹ in experiment [4], 0.00682 s⁻¹ in experiment [5] and 0.000537 s⁻¹ in experiment [6]. Besides, the results for the kon in experiment [4], in experiment [5] and in experiment [6] were 310000 M⁻¹ s⁻¹, 122000 M⁻¹ s⁻¹ and 322000 M⁻¹ s⁻¹, respectively. Moreover, the EC50 in [7] was 0.256 nM; in experiment [8] it was 0.453 nM; in experiment [9] it was 0.718 nM; in experiment [10], 0.333 nM. Also, the “Baf3-hPRLR proliferation IC50” value in the experiment with human PRLR on cells [1] amounted to 0.17 µg/mL. Further, the “Baf3-cyPRLR proliferation IC50” value in experiment [2] came to 0.39 µg/mL.

B4: Ab29 (antibody, human IgG1, kappa)
heavy: not shown
light: B3 light with V2I
notes: humanized from Ab5; G1; also called Ab HC.1a and Ab2 LC.1
As to B4, the results for the Kd in experiment [4], in experiment [5] and in [6] were 2.24 nM, 53 nM and 1.79 nM, respectively. The koff in experiment [4] stood at 0.000675 s⁻¹; in experiment [5], 0.00634 s⁻¹; in [6], 0.00056 s⁻¹. The figures for the kon in experiment [4], in [5] and in [6] were 301000 M⁻¹ s⁻¹, 120000 M⁻¹ s⁻¹ and 313000 M⁻¹ s⁻¹, respectively. Besides, the EC50 is 0.153 nM in experiment [7], 0.269 nM in experiment [8], 0.689 nM in experiment [9] and 0.238 nM in experiment [10]. In addition, the “Baf3-hPRLR proliferation IC50” value with human PRLR on cells [1] came to 0.15 µg/mL. Also, the “Baf3-cyPRLR proliferation IC50” value in [2] is 0.23 µg/mL.

B5: Ab8 (antibody, V domains shown)
VH: EVQLQQSGPELVKPGASVKISCKASGYTFTDYNIHWVKQSHGKSLEWIGYIYPNNDGTGYNQKFKSKATLTVDNSSSTAYMEVRSLTSEDSAVYYCARGDGNYVGDMDYWGQGTSVTVSS
VL: DIQMTQSPASLSASVGETVTITCRASENIYSYLAWYQQKQGKPPQLLVYNAKTLAEGVPSRFSGGGSGTQFSLKINSLQPEDFGSYYCQHHYATPFTFGSGTKLEIK
notes: murine monoclonal, isotype G2b; also called murine Ab8
As for B5, the figures for the Kd in experiment [4], in experiment [5] and in experiment [6] were 2.2 nM, 259 nM and 0.153 nM, respectively. Also, the dissociation rate constant (koff) in [4] stood at 0.00116 s⁻¹; in [5], 0.0466 s⁻¹; in experiment [6], 8.19e-05 s⁻¹. Moreover, the kon in experiment [4] was determined as 526000 M⁻¹ s⁻¹; in [5], 180000 M⁻¹ s⁻¹; in [6], 536000 M⁻¹ s⁻¹. The results for the EC50 in experiment [8], in experiment [9] and in [10] were 0.098 nM, 0.205 nM and 0.342 nM, respectively. Also, the “FACS GeoMean-neg” value with human PRLR on cells [11] amounted to 1530. Besides, in the experiment with human PRLR on cells [1], the “Baf3-hPRLR proliferation IC50” value worked out at 1.15 µg/mL. In addition, the “T47D pPRLR ELISA IC50” value with human PRLR on cells [1] stood at 0.219 µg/mL. Also, the “Baf3-cyPRLR proliferation IC50” value in experiment [2] is 1.64 µg/mL.
